Assay type in all cases: biochemical
Data set [1] can be described thus: Phospholipase A activity assay. To be noted: amount of enzyme used for LDL digestion. On the procedure: (§1) Triglyceride hydrolase activity of CEase and LIPC was determined with DMPTB as substrate according to Choi et al. (Choi et al., 2003) Phospholipase A activity of CEase and LIPC was assayed similarly as triglyceride hydrolase activity but with 1.5 mM of 1,2-bis(heptanoylthio)glycerophosphocholine as substrate and assay buffer containing 10 mM of CaCl2 instead of 1 mM of EDTA.

Data set [2] relates to classical pathway of complement system. Kind of data set: Complement activation (C3 fixation) by LIPC- or CEase-digested immobilized LDL with human serum. To be noted: 0-50 μg/ml LIPC; 0-2 hours. On the procedure:
96-well MaxiSorp plates were coated with fresh human LDL (A, D, E), VLDL (B), or NaOH-hydrolyzed LDL (C). After blocking with BSA, the plates, except (C), were digested with LIPC. To test complement activation, the plates were incubated with diluted native human serum (N), C1q-depleted human serum (Cd), factor B-depleted human serum (Bd), or human serum containing Mg-EGTA (ME). C3 fixation on the plate was detected with a monoclonal anti-C3d antibody followed by HRP-conjugated secondary antibody. Specific conditions for LIPC digestion and HRP-catalyzed color development of each experiment were outlined as following: LIPC was used at 10 μg/ml for (A, B, E), 0-50 μg/ml for (D), and no LIPC for (C). LIPC degradation was 1 hour for (D), 2 hours for (A, B), and 0-2 hours for (E). Color development was 15 minutes for (A, B, C, E) and 10 minutes for (D). For NaOH hydrolysis of LDL, 1.35 mg/ml of LDL was incubated in 0.15M NaOH solution at 25° C. for up to 60 minutes. Aliquots were taken out and neutralized with 0.15M HCl at 1, 10, 20, 60 minutes.
LIPC and CEase, both having 8 μUnits of phospholipase A1 activity but having 3 μUnits and 8125 μUnits of triglyceride hydrolase activity respectively, were used for 2 hours digestion of immobilized LDL. Complement activation with diluted native human serum is then determined as in FIG. 1. The HRP-catalyzed color development was 15 minutes.
Human LDL coating and 1 hour (C) or 2 hours (A, B) LIPC digestion was performed as described in FIG. 1. (A) For complement activation, 0-50 μM of phosphocholine was added into diluted native human serum. […]
After thorough washing of the plate, C3 fixation and final membrane attack complex formation on the plate were determined with anti-human C3d antibody and anti-human C5b-9 antibody, in combination with HRP-conjugated secondary antibody, respectively. […] The final peroxidase activity was monitored at 450 nm with 3,3′,5,5′-tetramethyl-benzidine and hydrogen peroxide as substrates after 10 or 15 minutes reaction at room temperature.

Data set [3] can be described thus: Triglyceride hydrolase activity assay. The conditions noted are these: amount of enzyme used for LDL digestion. On the procedure: as §1

B1: LIPC: recombinant human LIPC (hepatic lipase) (protein, UniProt P11150 23-499, looked up)
Hepatic triacylglycerol lipase: LGQSLKPEPFGRRAQAVETNKTLHEMKTRFLLFGETNQGCQIRINHPDTLQECGFNSSLPLVMIIHGWSVDGVLENWIWQMVAALKSQPAQPVNVGLVDWITLAHDHYTIAVRNTRLVGKEVAALLRWLEESVQLSRSHVHLIGYSLGAHVSGFAGSSIGGTHKIGRITGLDAAGPLFEGSAPSNRLSPDDANFVDAIHTFTREHMGLSVGIKQPIGHYDFYPNGGSFQPGCHFLELYRHIAQHGFNAITQTIKCSHERSVHLFIDSLLHAGTQSMAYPCGDMNSFSQGLCLSCKKGRCNTLGYHVRQEPRSKSKRLFLVTRAQSPFKVYHYQFKIQFINQTETPIQTTFTMSLLGTKEKMQKIPITLGKGIASNKTYSFLITLDVDIGELIMIKFKWENSAVWANVWDTVQTIIPWSTGPRHSGLVLKTIRVKAGETQQRMTFCSENTDDLLLRPTQEKIFVKCEIKSKTSKRKIR
For the molecule B1, the PLA1 activity in data set [1] is on record as 8 μUnits. In addition, the “complement activation, dependence on LIPC degradation” value in data set [2] is “both dose and time-dependent”. The TGhydrolase activity in data set [3] came out at 3 μUnits.

The values above are taken from patent US20160151410A1, “CLEARANCE OF BIOACTIVE LIPIDS FROM MEMBRANE STRUCTURES BY CYCLODEXTRINS” (The Trustees of Columbia University in the City of New York, priority 2013, published 2016).
